The target of assay [1] is T1, human CCR8 (human, UniProt P51685 1-355).
T1 construct: whole, on cells; construct used for the overexpressing cell lines is not described; also called hCCR8
Put plainly: FACS, CHO-K1-hCCR8 cells, Fab. The method, then:
(§1) Cells overexpressing human CCR8 were digested with pancreatin, counted and resuspended to a cell density of 1E6 cells/mL. The cell suspension was added to a 96-well V-bottom plate at 100 μL/well and centrifuged at 300 g for 5 min, and the supernatant was discarded. The anti-CCR8 antibodies provided herein was used as a primary antibody and diluted in a 5-fold gradient with an FACS buffer (DPBS containing 2% FBS) from 200 nM. The diluted primary antibody was added at 100 μL/well to resuspend the cells, and the mixture was incubated at 4° C. for 1 h. The plate was washed twice with DPBS and centrifuged at 300×g for 5 min, and the supernatant was discarded. The secondary antibody diluted in a 1:1000 ratio with an FACS buffer was added at 100 μL/well to suspend the cells, and the mixture was incubated at 4° C. for 40 min. The plate was washed twice with DPBS and centrifuged at 300×g for 5 min, and the supernatant was discarded. DPBS was added at 200 μL/well to suspend the cells, and the mixture was loaded on an FACS machine for analysis.

Assay [2] addresses T1, human CCR8. Put plainly: FACS, CHO-K1-hCCR8 cells. Summed up:
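Flow cytometry measures antibody binding to the overexpressing cells. These are first incubated at 4 °C for 1 h with test antibody titrated 5-fold down from 200 nM, then for 40 min with secondary antibody diluted 1:1000.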

Assay [3] has as its target T1, human CCR8. Briefly: FACS, CHO-K1-hCCR8 cells. The protocol:
as §1
The source holds these as a separate data set.

Assay [4] has as its target T2, cynomolgus monkey CCR8 (cynomolgus monkey, UniProt G7NYJ2 1-355).
T2 construct: whole, on cells; also called CynoCCR8
Briefly: FACS, CHO-K1-CynoCCR8 cells. The protocol: as §1, with “cynomolgus monkey CCR8, CHO-K1-CynoCCR8,” for “human CCR8”

Assay [5] addresses T1, human CCR8. Put plainly: FACS, Baf3-hCCR8 cells. The protocol: as §1
Assay [6] has as its target T1, human CCR8. Put plainly: cell-based or functional assay.
Assay [7] concerns the target T1, human CCR8. Put plainly: FACS, HEK293-hCCR8 cells. The method, then: as §1
Assay [8] concerns the target T1, human CCR8. Briefly: FACS, HEK293-hCCR8 cells. The protocol: as §1
This is another data set of the same source.

Assay [9] concerns the target T1, human CCR8. Briefly: FACS competition on HEK293-hCCR8 cells against a biotin-labelled anti-CCR8 antibody at its EC80; the labelled antibody of this panel is not named on the sheet. The protocol: (§2) The antibody was conjugated with Sulfo-NHS-LC-Biotin at a molar ratio of 5:1 (1 mol antibody was added to 5 mol Sulfo-NHS-LC-Biotin) with reference to the product instructions (ThermoFisher, Cat No. A39257) and incubated on ice for 2 h. The coupled antibody was purified with a Zeba desalting column (ThermoFisher, Cat No. 89882). Cells overexpressing human CCR8, HEK293-hCCR8, were added to a V-bottom 96-well plate at a density of 1E5 cells/well and centrifuged at 300 g for 5 min, and the supernatant was discarded. The competitive antibody was serially diluted in a ratio of 1:10 from 200 nM to obtain 8 concentration points. The Biotin-antibody and the competition antibody were mixed in a 1:1 ratio on an HEK293 cell line overexpressing human CCR8 by the binding EC₈₀ concentration. The cells in the 96-well plate were resuspended and incubated at 4° C. for 1 h. The plate was washed twice with DPBS at 200 μL/well. The secondary antibody diluted in a 1:1000 ratio was added at 100 μL/well, and the mixture was incubated at 4° C. for 40 min. The plate was washed twice with DPBS at 200 μL/well. Finally, DPBS was […] at 200 μL/well to suspend the cells, and the mixture was loaded on an FACS machine for analysis.

For assay [10], the target named is T1, human CCR8. The description is as above. The protocol:
as §2
The source holds these as a separate data set.

Assay [11] addresses T1, human CCR8. Described as above. The method, then:
as §2
This is another data set of the same source.

In assay [12] the target is T1, human CCR8. The assay is described as above. The method, then: as §2
The source holds these as a separate data set.

The target of assay [13] is T1, human CCR8. The assay is described as above. The method, then:
as §2
The source holds these as a separate data set.

In assay [14] the target is T2, cynomolgus monkey CCR8. Put plainly: FACS, CHO-K1-CynoCCR8 cells. The protocol:
as §1, with “cynomolgus monkey CCR8, CHO-K1-CynoCCR8,” for “human CCR8”
The source holds these as a separate data set.

Consider 14 molecules from patent US20240132603A1 (HARBOUR BIOMED US, published 2024).

Numbering of substitutions follows the chain as printed. In names and notes the source's numbering stands. Read-outs that look alike come from different tables or passages of the source.

T1 sequence (P51685 whole entry): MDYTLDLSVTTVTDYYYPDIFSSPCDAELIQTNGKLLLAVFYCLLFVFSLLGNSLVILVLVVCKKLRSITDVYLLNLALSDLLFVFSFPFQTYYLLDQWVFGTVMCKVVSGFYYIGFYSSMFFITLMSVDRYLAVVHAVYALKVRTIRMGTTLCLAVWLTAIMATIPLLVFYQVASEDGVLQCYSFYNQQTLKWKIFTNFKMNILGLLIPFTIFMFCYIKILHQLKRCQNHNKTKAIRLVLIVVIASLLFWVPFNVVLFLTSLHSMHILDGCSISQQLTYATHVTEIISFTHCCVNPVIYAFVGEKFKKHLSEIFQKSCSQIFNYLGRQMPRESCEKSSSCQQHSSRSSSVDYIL
T2 sequence (G7NYJ2 entry or part of it): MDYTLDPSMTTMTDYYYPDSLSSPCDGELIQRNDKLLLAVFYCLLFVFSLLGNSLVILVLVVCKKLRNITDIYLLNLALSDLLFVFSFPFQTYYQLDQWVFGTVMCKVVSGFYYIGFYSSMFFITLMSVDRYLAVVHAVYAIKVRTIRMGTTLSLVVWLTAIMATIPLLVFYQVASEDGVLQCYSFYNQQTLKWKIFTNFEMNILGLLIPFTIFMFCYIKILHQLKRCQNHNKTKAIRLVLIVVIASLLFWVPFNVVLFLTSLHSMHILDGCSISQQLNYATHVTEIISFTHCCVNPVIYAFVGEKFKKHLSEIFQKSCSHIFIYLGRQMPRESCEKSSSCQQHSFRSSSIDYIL

B1: PR005750 (Fab, V domains shown)
VH: EVQLVESGGGLVKPGGSLRLSCAASGFTFSTYAMNWVRQAPGKGLEWVGRIRSKSNNYATYYADSVKDRFTISRDDSKSTLYLQMNSLKTEDTAVYYCVRGKENANYYAMDFWGQGTTVTVSS
VL: DIVMTQSPLSLPVTLGQPASISCRSSKSLLHSNAKIYLYWFQQRPGQSPRLLIYRMSNLASGVPDRFSGSGSGTDFTLKISRVEAEDVGVYYCMQHLEYPLTFGQGTKLEIKR
notes: Fab form of the same variable region as PR004666
B1: a half-maximal effect in the assay with human CCR8 [1] (EC50) was put at 1.56 nM.

B2: PR005787 (Fab, V domains shown)
VH: B1 VH with N57Y, N104I, A105G, N106K
VL: B1 VL
Take B2: the response in the assay with human CCR8 [1] was half-maximal at 0.74 nM (EC50).

B3: PR005753 (Fab, V domains shown)
VH: B1 VH with N104I, A105G
VL: B1 VL
The molecule B3 yielded an EC50 in the assay with human CCR8 [1] of 1.19 nM.

B4: PR005754 (Fab, V domains shown)
VH: B1 VH with N57Y, N104I, A105G
VL: B1 VL
On to B4, for which, in the assay with human CCR8 [1], a half-maximal effect (EC50) was put at 0.84 nM.

B5: PR005751 (Fab, V domains shown)
VH: B1 VH with N104H, A105G
VL: B1 VL
Consider B5, for which, in the assay with human CCR8 [1], the concentration for a half-maximal effect (EC50) stood at 1.1 nM.

B6: PR005752 (Fab, V domains shown)
VH: B1 VH with N57Y, N104H, A105G
VL: B1 VL
In turn, B6 registered an EC50 with human CCR8 [1] of 0.69 nM.

B7: PR005763 (Fab, V domains shown)
VH: B1 VH with N57Y, N104H, A105G, N106K
VL: B1 VL
B7: the response in the assay with human CCR8 [1] was half-maximal at 0.62 nM (EC50).

B8: PR004666 (antibody, human IgG1, kappa)
heavy: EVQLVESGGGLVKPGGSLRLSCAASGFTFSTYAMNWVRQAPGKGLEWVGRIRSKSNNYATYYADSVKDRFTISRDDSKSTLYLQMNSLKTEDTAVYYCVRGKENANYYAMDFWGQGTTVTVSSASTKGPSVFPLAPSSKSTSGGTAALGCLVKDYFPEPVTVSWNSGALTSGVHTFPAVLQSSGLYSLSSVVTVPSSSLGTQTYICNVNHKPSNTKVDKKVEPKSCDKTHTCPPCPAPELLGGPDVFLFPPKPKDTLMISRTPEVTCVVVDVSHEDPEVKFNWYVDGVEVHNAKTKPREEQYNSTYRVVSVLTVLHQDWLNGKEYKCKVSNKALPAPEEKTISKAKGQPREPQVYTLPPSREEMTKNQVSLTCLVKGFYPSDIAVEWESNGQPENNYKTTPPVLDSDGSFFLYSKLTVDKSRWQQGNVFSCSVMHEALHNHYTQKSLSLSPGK
light: DIVMTQSPLSLPVTLGQPASISCRSSKSLLHSNAKIYLYWFQQRPGQSPRLLIYRMSNLASGVPDRFSGSGSGTDFTLKISRVEAEDVGVYYCMQHLEYPLTFGQGTKLEIKRTVAAPSVFIFPPSDEQLKSGTASVVCLLNNFYPREAKVQWKVDNALQSGNSQESVTEQDSKDSTYSLSSTLTLSKADYEKHKVYACEVTHQGLSSPVTKSFNRGEC
notes: PTM site-removed humanized variant of PR004128, IgG1 with DE mutation
In the case of B8, the EC50 with human CCR8 [2] was determined as 0.44 nM; with human CCR8 [3], 0.466 nM; with cynomolgus monkey CCR8 [4], 0.37 nM.

B9: PR004667 (antibody, human IgG1, kappa, V domains shown)
VH: B1 VH with N104Q, A105G
VL: B1 VL
notes: as for B8
B9 returned an EC50 in the assay with human CCR8 [3] of 0.279 nM.

B10: PR004121 (antibody, human IgG1, kappa, V domains shown)
VH: EVQLVESGGGLVQPKGSLKLSCAASGFTFNTYAMNWVRQAPGKGLEWVARIRSKSNNYATYYADSVKDRFTISRDDSQNMLYLQMNNLKTEDTAMYYCVRGKENGNYYAMDFWGQGTSVTVSS
VL: DIVITQAAPSVPVTPGESVSISCRSSKSLLHSNGNTYLYWFLQRPGQSPQLLIYRMSNLASGVPDRFSGSGSGTAFTLRISRVEAEDVGVYYCMQHLEYPFTFGGGTKLEMKR
notes: chimeric, human IgG1 constant region
Consider B10, for which the EC50 is 0.22 nM in the assay with human CCR8 [5], 0.41 nM with human CCR8 [2], 0.63 nM with human CCR8 [7] and 0.9 nM with human CCR8 [8]. The “Bottom %, blocking of CCL1-stimulated calcium flux” value with human CCR8 [6] came to 0%. In the assay with human CCR8 [6], the “IC50(nM), blocking of CCL1-stimulated calcium flux” value came to 1.44 nM. The “IC50 (read off the curve)” value is about 3 nM in the assay with human CCR8 [9]; about 2 nM with human CCR8 [10]; about 2 nM with human CCR8 [11]; about 2 nM with human CCR8 [12]; 1 to 2 nM with human CCR8 [13].

B11: PR004131 (antibody, human IgG1, kappa)
heavy: not shown
light: DIVMTQAAPSVPVTPGESVSISCRSNKSLLHSNGNTYLYWFLQRPGQSPQLLIYRMSNLASGVPDRFSGSGSGTAFTLRISRVEAEDVGVYYCMQHLEYPLTFGAGTKLEIKRTVAAPSVFIFPPSDEQLKSGTASVVCLLNNFYPREAKVQWKVDNALQSGNSQESVTEQDSKDSTYSLSSTLTLSKADYEKHKVYACEVTHQGLSSPVTKSFNRGEC
notes: as for B10
B11: the 50% effective concentration (EC50) with human CCR8 [5] was 0.2 nM; with human CCR8 [2], 0.52 nM; with human CCR8 [7], 0.79 nM; in the assay with human CCR8 [8], 1.94 nM; with cynomolgus monkey CCR8 [4] it was 1.6 nM; with cynomolgus monkey CCR8 [14] it was 8.65 nM. In the assay with human CCR8 [6], the “Bottom %, blocking of CCL1-stimulated calcium flux” value was found to be 0%. The “IC50(nM), blocking of CCL1-stimulated calcium flux” value in the assay with human CCR8 [6] came out at 1.67 nM. For the same molecule, the “IC50 (read off the curve)” value was about 3 nM with human CCR8 [9]; about 2 nM in the assay with human CCR8 [10]; about 2 nM with human CCR8 [11]; about 2 nM with human CCR8 [12]; 1 to 2 nM in the assay with human CCR8 [13].

B12: PR004252 (antibody, human IgG1, kappa)
heavy: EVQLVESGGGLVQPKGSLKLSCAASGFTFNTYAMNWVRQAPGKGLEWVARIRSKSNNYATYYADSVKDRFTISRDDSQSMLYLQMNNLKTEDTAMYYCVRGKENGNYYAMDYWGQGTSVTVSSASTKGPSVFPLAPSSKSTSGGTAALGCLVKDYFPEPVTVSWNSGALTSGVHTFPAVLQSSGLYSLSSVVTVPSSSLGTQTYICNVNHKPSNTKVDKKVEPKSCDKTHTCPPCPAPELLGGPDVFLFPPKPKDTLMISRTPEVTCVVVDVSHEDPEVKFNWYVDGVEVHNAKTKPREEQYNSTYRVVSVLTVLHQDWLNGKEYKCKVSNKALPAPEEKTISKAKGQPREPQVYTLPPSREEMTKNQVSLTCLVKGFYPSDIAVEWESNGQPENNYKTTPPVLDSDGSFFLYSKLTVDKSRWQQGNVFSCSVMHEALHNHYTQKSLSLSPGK
light: B11 light
notes: PR004131 with S239D and I332E (DE) in the IgG1 constant region
Regarding B12, the figures for the EC50 in the assay with human CCR8 [8] and with cynomolgus monkey CCR8 [14] were 0.98 nM and 3.32 nM, respectively.

B13: PR004249 (antibody, human IgG1, kappa)
heavy: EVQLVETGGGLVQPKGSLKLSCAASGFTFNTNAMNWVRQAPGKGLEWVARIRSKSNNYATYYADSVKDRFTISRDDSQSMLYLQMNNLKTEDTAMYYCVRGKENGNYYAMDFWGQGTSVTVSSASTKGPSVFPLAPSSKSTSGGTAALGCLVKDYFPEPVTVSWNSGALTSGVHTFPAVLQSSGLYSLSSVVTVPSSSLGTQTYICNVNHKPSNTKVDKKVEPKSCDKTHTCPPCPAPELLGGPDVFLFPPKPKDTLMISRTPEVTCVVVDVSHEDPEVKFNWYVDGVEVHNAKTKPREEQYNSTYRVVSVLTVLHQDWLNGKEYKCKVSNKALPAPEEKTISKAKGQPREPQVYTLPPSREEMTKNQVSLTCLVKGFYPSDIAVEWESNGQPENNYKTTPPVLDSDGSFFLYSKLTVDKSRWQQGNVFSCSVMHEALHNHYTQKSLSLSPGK
light: B11 light with N26S, I111L
notes: PR004122 with S239D and I332E (DE) in the IgG1 constant region
As to B13, the EC50 was found to be 1.22 nM in the assay with human CCR8 [8] and 3.42 nM in the assay with cynomolgus monkey CCR8 [14].

B14: PR004251 (antibody, human IgG1, kappa)
heavy: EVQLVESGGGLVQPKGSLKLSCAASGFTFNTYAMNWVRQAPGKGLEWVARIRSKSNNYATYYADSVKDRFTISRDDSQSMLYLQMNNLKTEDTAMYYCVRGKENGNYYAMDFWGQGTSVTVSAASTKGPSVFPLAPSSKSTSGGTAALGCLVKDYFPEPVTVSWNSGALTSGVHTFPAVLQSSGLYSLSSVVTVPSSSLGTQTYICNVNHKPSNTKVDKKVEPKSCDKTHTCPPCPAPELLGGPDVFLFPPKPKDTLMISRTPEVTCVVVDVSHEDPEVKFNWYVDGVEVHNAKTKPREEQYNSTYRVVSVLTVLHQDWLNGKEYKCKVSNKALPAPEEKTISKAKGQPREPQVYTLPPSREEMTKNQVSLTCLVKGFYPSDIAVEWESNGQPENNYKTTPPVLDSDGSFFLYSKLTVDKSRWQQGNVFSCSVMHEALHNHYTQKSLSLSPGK
light: B11 light with N26S, N35K, T36I
notes: PR004128 with S239D and I332E (DE) in the IgG1 constant region
As to B14, the EC50 was determined as 3.69 nM with human CCR8 [8] and 8.26 nM with cynomolgus monkey CCR8 [14].
